US20190065668

Biological target: fluorogenic KAHRP PEXEL peptide DABCYL-…-E-EDANS

Row | Protein | Km | cleavage of the fluorogenic peptide
1 | recombinant P. vivax plasmepsin V (residues R35-R476), N-terminal fusion tag removed with TEV protease (protein) GTRSESTEGHSKDLLYKYKLYGDIDEYAYYFLDIDIGTPEQRISLILDTGSSSLSFPCAGCKNCGVHMENPFNLNNSKTSSILYCENEECPFKLNCVKGKCEYMQSYCEGSQISGFYFSDVVSVVSYNNERVTFRKLMGCHMHEESLFLYQQATGVLGMSLSKPQGIPTFVNLLFDNAPQLKQVFTICISENGGELIAGGYDPAYIVRRGGSKSVSGQGSGPVSESLSESGEDPQVALREAEKVVWENVTRKYYYYIKVRGLDMFGTNMMSSSKGLEMLVDSGSTFTHIPEDLYNKLNYFFDILCIQDMNNAYDVNKRLKMTNESFNNPLVQFDDFRKSLKSIIAKENMCVKIVDGVQCWKYLEGLPDLFVTLSNNYKMKWQPHSYLYKKESFWCKGIEKQVNNKPILGLTFFKNRQVIFDIQKNRIGFVDANCPSHPTHTRPR | 20.2 µM and 6.0 µM for the P. falciparum and P. vivax enzymes, respectively | demonstrated specific activity against the PEXEL substrates and cleaved the peptides after the P1 Leucine residue as expected
2 | recombinant P. falciparum plasmepsin V (residues N80-R528) (protein) NASSDLYKYKLYGDIDEYAYYFLDIDIGKPSQRISLILDTGSSSLSFPCNGCKDCGIHMEKPYNLNYSKTSSILYCNKSNCPYGLKCVGNKCEYLQSYCEGSQIYGFYFSDIVTLPSYNNKNKISFEKLMGCHMHEESLFLHQQATGVLGFSLTKPNGVPTFVDLLFKHTPSLKPIYSICVSEHGGELIIGGYEPDYFLSNQKEKQKMDKSDNNSSNKGNVSIKLKNNDKNDDEENNSKDVIVSNNVEDIVWQAITRKYYYYIKIYGLDLYGTNIMDKKELDMLVDSGSTFTHIPENIYNQINYYLDILCIHDMTNIYEINKRLKLTNESLNKPLVYFEDFKTALKNIIQNENLCIKIVDGVQCWKSLENLPNLYITLSNNYKMIWKPSSYLYKKESFWCKGLEKQVNNKPILGLTFFKNKQVIFDLQQNQIAFIESKCPSNLTSSRPR | 20.2 µM and 6.0 µM for the P. falciparum and P. vivax enzymes, respectively | demonstrated specific activity against the PEXEL substrates and cleaved the peptides after the P1 Leucine residue as expected
